Laboratory results as given in article PMC12153344, “Deciphering the role of accessory proteins in Arabidopsis chloroplast editosomes via interaction with a synthetic PPR-PLS factor in E. coli”.

Key:
MBP-ORRM1 = target: T1, MBP-ORRM1 (Arabidopsis, UniProt Q8L440 55-374); test: EMSA; MBP-ORRM1; no shift after many purification attempts; REMSA following Royan et al. (2021), binding buffer, pH and temperature not given in the material; proteins stored in 25 mM Tris-HCl pH 7.2, 250 mM NaCl, 20% glycerol, 0.5 mM EDTA, 1 mM DTT; settings: protein: recombinant; tags: N-terminal MBP; label: 5'-Cy5; single strand
T1 sequence: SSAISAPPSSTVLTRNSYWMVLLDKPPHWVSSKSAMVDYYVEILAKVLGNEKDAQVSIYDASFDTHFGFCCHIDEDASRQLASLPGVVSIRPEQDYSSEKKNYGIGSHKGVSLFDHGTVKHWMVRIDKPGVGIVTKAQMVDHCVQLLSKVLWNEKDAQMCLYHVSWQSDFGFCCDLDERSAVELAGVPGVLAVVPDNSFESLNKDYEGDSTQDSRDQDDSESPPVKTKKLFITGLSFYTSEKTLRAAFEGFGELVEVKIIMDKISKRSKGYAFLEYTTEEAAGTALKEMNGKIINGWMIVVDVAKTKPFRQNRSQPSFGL

dsn3PLS-DYW = target: T2, dsn3PLS-DYW (synthetic construct (design of Royan et …, UniProt UPI0040747504 1-612)); test: EMSA; dsn3PLS-DYW alone; Kd estimated, value only in figure; REMSA following Royan et al. (2021), binding buffer, pH and temperature not given in the material; proteins stored in 25 mM Tris-HCl pH 7.2, 250 mM NaCl, 20% glycerol, 0.5 mM EDTA, 1 mM DTT; settings: protein: recombinant; tags: N-terminal thioredoxin (109 aa)-6xHis, 133 aa tag in total (pETM20); label: 5'-Cy5; single strand
T2 chain: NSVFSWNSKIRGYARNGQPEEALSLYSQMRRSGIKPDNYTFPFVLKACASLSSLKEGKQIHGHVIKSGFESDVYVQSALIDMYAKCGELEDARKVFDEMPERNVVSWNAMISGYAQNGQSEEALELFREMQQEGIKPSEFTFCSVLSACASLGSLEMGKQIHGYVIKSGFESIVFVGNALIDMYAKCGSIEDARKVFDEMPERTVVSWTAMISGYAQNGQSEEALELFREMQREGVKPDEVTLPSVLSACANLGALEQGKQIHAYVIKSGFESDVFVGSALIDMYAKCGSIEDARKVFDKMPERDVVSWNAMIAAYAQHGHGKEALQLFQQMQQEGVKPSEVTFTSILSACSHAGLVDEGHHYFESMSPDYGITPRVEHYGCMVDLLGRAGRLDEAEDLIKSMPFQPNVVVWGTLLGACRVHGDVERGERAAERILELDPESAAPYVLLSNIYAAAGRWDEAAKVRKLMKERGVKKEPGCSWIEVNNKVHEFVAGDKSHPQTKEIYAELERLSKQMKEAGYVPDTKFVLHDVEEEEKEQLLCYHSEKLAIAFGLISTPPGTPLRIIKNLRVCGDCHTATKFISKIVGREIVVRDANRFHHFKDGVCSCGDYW

Does AUGUAUUACACGUGCAAAAUCUGAGA (ssRNA) [rpoA_REMSA] bind (MBP-ORRM1)?
Result: no binding

Does AUGUAUUACACGUGCAAAAUCUGAGA (ssRNA) [rpoA_REMSA] bind (dsn3PLS-DYW)?
Result: binds
